For one molecule, Kd results are on record in paper PMC7096399, “The Na,K-ATPase acts upstream of phosphoinositide PI(4,5)P2 facilitating unconventional secretion of Fibroblast Growth Factor 2” (Communications Biology, 2020).

This experiment has as its target T1, ∆N25-FGF2, non-tagged form of FGF2 lacking 25 residues at the N-terminus (UniProt P09038-2 26-155).
T1 construct: FGF2, 18 kDa isoform (UniProtKB P09038-2), lacking 25 residues at the N-terminus; Untagged; also called untagged version of FGF2; source: E. coli, purified according to standard procedures
The experiment is described as follows: AlphaScreen or HTRF; competition: His-FGF2-wt (62 nM) and GST-α1 variant (15 nM) with ∆N25-FGF2 competitor from 22.5 µM to 1.4 nM; apparent IC50 taken as the apparent KD. Conditions: both partners purified. On the technique in general: In Alpha technology, singlet oxygen from a donor bead excites a nearby acceptor bead.

T1 sequence (P09038 159-288): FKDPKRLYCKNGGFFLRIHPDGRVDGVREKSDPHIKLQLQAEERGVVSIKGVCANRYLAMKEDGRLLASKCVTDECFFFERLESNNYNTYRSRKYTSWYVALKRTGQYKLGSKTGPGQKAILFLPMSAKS

B1: GST-α1-CD1-3, fusion of the three main loops of the cytoplasmic domain of the α1 subunit of the Na,K-ATPase (domain or fragment)
chain: not shown
In the case of B1, the Kd was 1.1 µM.
